In patent US20090149339A1 (published 2009):
Ends that are not written are not given here. * marks the point of attachment. Biotin = O=C1N[C@H]2[C@H](CS[C@H]2CCCCC(=O)*)N1

Key:
[1] = molecular target: T1, GST-NeDLG PDZ domain fusion protein (presynaptic protein sao102, neuroendocrine-dlg; PDZ domains 1-2 of 3) (UniProt P08515 1-218 = GST); test: A assay
T1 construct: also called NeDLG1

[2] = molecular target: T2, GST-MPP1 PDZ domain fusion protein (55 Kd erythrocyte membrane protein AA101-186; PDZ domain 1 of 1) (UniProt P08515 1-218 = GST); test: A assay
[3] = molecular target: T3, GST-LIM PDZ domain fusion protein (Human LIM protein AA29-112; PDZ domain 1 of 1) (human, UniProt P08515 1-218 = GST); test: A assay
[4] = molecular target: T4, GST-AF6 PDZ domain fusion protein (af-6 protein AA985-1077; PDZ domain 1 of 1) (UniProt P08515 1-218 = GST); test: A assay
[5] = molecular target: T5, GST-RGS12 PDZ domain fusion protein (human regulator of G-protein signalling 12 AA35-103; PDZ domain 1 of 1) (human, UniProt P08515 1-218 = GST); test: A assay
T5 construct: also called RSG12

[6] = molecular target: T6, GST-41.8 kD PDZ domain fusion protein (hypothetical 41.8 kD protein AA4-85; PDZ domain 1 of 1) (UniProt P08515 1-218 = GST); test: A assay
T6 construct: also called hypoth

[7] = molecular target: T7, GST-MPP2 PDZ domain fusion protein (maguk p55 subfamily member 2 (DLG2) AA185-273; PDZ domain 1 of 1) (UniProt P08515 1-218 = GST); test: G assay
T7 construct: also called MMP2

[8] = molecular target: GST-prIL16 PDZ domain fusion protein (putative interleukin 16 precursor AA170-383; PDZ domains 1-2 of 2) (UniProt P08515 1-218 = GST); test: A/G assays
[9] = molecular target: GST-DVL1 PDZ domain fusion protein (human dishevelled segment polarity protein homolog AA248-340); PDZ domain … (human, UniProt P08515 1-218 = GST); test: A/G assays
[10] = molecular target: T8, GST-TAX2 PDZ domain fusion protein (human tax interaction protein 2 AA54-140; PDZ domain 1 of 1) (human, UniProt P08515 1-218 = GST); test: A/G assays
T8 construct: also called TX 2

[11] = molecular target: T9, GST-KIAA0559 PDZ domain fusion protein (KIAA0559 AA766-870; PDZ1 of 1) (UniProt P08515 1-218 = GST); test: A/G assays
T9 construct: also called K559

[12] = molecular target: T10, GST-TIAM1 PDZ domain fusion protein (T-lymphoma invasion and metastasis inducing protein 1 AA1001-1088); PDZ 1 … (UniProt P08515 1-218 = GST); test: A/G assays
[13] = molecular target: T11, GST-CASK PDZ domain fusion protein (CASK AA495-584; PDZ domain 1 of 1) (mouse, UniProt P08515 1-218 = GST); test: A/G assays
T11 construct: also called mCASK

[14] = molecular target: T12, GST-SYN1a PDZ domain fusion protein (alpha1-syntrophin AA96-189; PDZ domain 1 of 1) (UniProt P08515 1-218 = GST); test: A/G assays
T12 construct: also called SYN 1 alpha; SYNTR 1 alpha

[15] = molecular target: GST-NOS1 PDZ domain fusion protein (human neuronal nitric oxide synthase; PDZ domain 1 of 1) (human, UniProt P08515 1-218 = GST); test: A/G assays
[16] = molecular target: T13, GST-TAX40 PDZ domain fusion protein (human tax interaction protein 40 AA35-137; PDZ domain 1 of 1) (human, UniProt P08515 1-218 = GST); test: A/G assays
T13 construct: also called TX 40

[17] = molecular target: T14, GST-KIAA0316 PDZ domain fusion protein (KIAA0316 AA197-284; PDZ domain 1 of 1) (UniProt P08515 1-218 = GST); test: A/G assays
T14 construct: also called K316

[18] = molecular target: T15, GST-TAX43 PDZ domain fusion protein (human tax interaction protein 43 AA15-85; PDZ domain 1 of 1) (human, UniProt P08515 1-218 = GST); test: A/G assays
T15 construct: also called TX 43

[19] = molecular target: T16, GST-TAX33 PDZ domain fusion protein (tax interaction protein 33 AA73-162; PDZ domain 1 of 1) (UniProt P08515 1-218 = GST); test: A/G assays
T16 construct: also called TX33

[20] = molecular target: GST-MINT3 PDZ domain fusion protein (human MINT3 AA11-52; PDZ domain 1 of 1) (human, UniProt P08515 1-218 = GST); test: A/G assays
[21] = molecular target: GST-LIMK2 PDZ domain fusion protein (human LIM domain kinase 2 AA185-275; PDZ domain 1 of 1) (human, UniProt P08515 1-218 = GST); test: A/G assays
[22] = molecular target: T17, GST-CBP PDZ domain fusion protein (Cytohesin binding protein HE AA85-175; PDZ domain 1 of 1) (UniProt P08515 1-218 = GST); test: A/G assays
T17 construct: also called Prot

[23] = molecular target: T18, GST-KIAA0303 PDZ domain fusion protein (KIAA0303 AA652-742; PDZ domain 1 of 1) (UniProt P08515 1-218 = GST); test: A/G assays
T18 construct: also called K303

[24] = molecular target: T19, GST-PTN-4 PDZ domain fusion protein (protein-tyrosine phosphatase meg1 AA774-862; PDZ domain 1 of 1) (UniProt P08515 1-218 = GST); test: A/G assays
[25] = molecular target: T20, GST-PSD95 PDZ domain fusion protein (human post-synaptic density protein 95 AA387-724; PDZ domains 1-3 of 3) (human, UniProt P08515 1-218 = GST); test: A and G assays
[26] = molecular target: T5, GST-RGS12 PDZ domain fusion protein …; test: G assay
[27] = molecular target: T19, GST-PTN-4 PDZ domain fusion protein …; test: G assay
[28] = molecular target: T20, GST-PSD95 PDZ domain fusion protein …; test: A/G assays
[29] = molecular target: T1, GST-NeDLG PDZ domain fusion protein …; test: A/G assays
[30] = molecular target: T2, GST-MPP1 PDZ domain fusion protein (55 …); test: A/G assays
[31] = molecular target: T3, GST-LIM PDZ domain fusion protein …; test: A/G assays
[32] = molecular target: T7, GST-MPP2 PDZ domain fusion protein …; test: A/G assays
[33] = molecular target: T4, GST-AF6 PDZ domain fusion protein (af-6 …); test: A/G assays
[34] = molecular target: T6, GST-41.8 kD PDZ domain fusion protein …; test: A/G assays
[35] = molecular target: T10, GST-TIAM1 PDZ domain fusion protein …; test: A assay
[36] = molecular target: T18, GST-KIAA0303 PDZ domain fusion protein …; test: A assay
[37] = molecular target: T5, GST-RGS12 PDZ domain fusion protein …; test: A/G assays

T19 sequence (P08515 1-218, tags or fused parts left off): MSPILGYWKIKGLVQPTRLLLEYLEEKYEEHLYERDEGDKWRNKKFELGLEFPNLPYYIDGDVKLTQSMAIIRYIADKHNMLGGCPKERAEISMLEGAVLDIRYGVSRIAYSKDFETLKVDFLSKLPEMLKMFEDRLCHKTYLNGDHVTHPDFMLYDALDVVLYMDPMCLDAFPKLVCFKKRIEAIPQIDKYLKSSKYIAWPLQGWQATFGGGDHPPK
T4 sequence (P08515 1-218, tags or fused parts left off): as above
T1 sequence (P08515 1-218, tags or fused parts left off): as above
T8 sequence (P08515 1-218, tags or fused parts left off): as above
T6 sequence (P08515 1-218, tags or fused parts left off): as above
T9 sequence (P08515 1-218, tags or fused parts left off): as above
T12 sequence (P08515 1-218, tags or fused parts left off): as above
T10 sequence (P08515 1-218, tags or fused parts left off): as above
Chain of GST-DVL1 PDZ domain fusion protein (human dishevelled segment polarity protein homolog AA248-340); PDZ domain … (P08515 1-218, tags or fused parts left off): as above
T14 sequence (P08515 1-218, tags or fused parts left off): as above
T15 sequence (P08515 1-218, tags or fused parts left off): as above
T5 sequence (P08515 1-218, tags or fused parts left off): as above
T16 sequence (P08515 1-218, tags or fused parts left off): as above
T13 sequence (P08515 1-218, tags or fused parts left off): as above
T17 sequence (P08515 1-218, tags or fused parts left off): as above
Chain of GST-NOS1 PDZ domain fusion protein (human neuronal nitric oxide synthase; PDZ domain 1 of 1) (P08515 1-218, tags or fused parts left off): as above
T7 sequence (P08515 1-218, tags or fused parts left off): as above
Chain of GST-prIL16 PDZ domain fusion protein (putative interleukin 16 precursor AA170-383; PDZ domains 1-2 of 2) (P08515 1-218, tags or fused parts left off): as above
T3 sequence (P08515 1-218, tags or fused parts left off): as above
Chain of GST-MINT3 PDZ domain fusion protein (human MINT3 AA11-52; PDZ domain 1 of 1) (P08515 1-218, tags or fused parts left off): as above
Chain of GST-LIMK2 PDZ domain fusion protein (human LIM domain kinase 2 AA185-275; PDZ domain 1 of 1) (P08515 1-218, tags or fused parts left off): as above

Binder | binding result [1] | binding result [2] | binding result [6] | binding result [8] | binding result [9] | binding result [10] | binding result [11] | binding result [12] | binding result [13] | binding result [14] | binding result [15] | binding result [16] | binding result [17] | binding result [18] | binding result [19] | binding result [20] | binding result [21] | binding result [22] | binding result [23] | binding result [24] | also measured
Biotin-TREDIYVNYPTFSRRPKTRV [DNAM-1 C-terminal PL peptide AA22L, biotinylated] | binds | binds | binds | no binding | no binding | no binding | no binding | no binding | no binding | no binding | no binding | no binding | no binding | no binding | no binding | no binding | no binding | no binding | no binding | no binding | binding result [3]: binds; binding result [4]: binds; binding result [5]: binds; binding result [7]: binds; binding result [25]: binds
Biotin-EVICYIEKPGVETLEDSVF [CDW125 (IL5R) C-terminal PL peptide AA28L, biotinylated] | – | – | – | no binding | no binding | no binding | no binding | no binding | no binding | no binding | no binding | no binding | no binding | no binding | no binding | no binding | no binding | no binding | no binding | – | binding result [26]: binds; binding result [27]: binds; binding result [28]: no binding; binding result [29]: no binding; binding result [30]: no binding; binding result [31]: no binding; binding result [32]: no binding; binding result [33]: no binding; binding result [34]: no binding
Biotin-ARKANMKGSYSLVEAQKSKV (also called CD106) [VCAM1 C-terminal PL peptide AA17L, biotinylated] | binds | binds | binds | no binding | no binding | no binding | no binding | – | no binding | no binding | no binding | no binding | no binding | no binding | no binding | no binding | no binding | no binding | – | no binding | binding result [35]: binds; binding result [36]: binds; binding result [28]: no binding; binding result [31]: no binding; binding result [32]: no binding; binding result [33]: no binding; binding result [37]: no binding
